The results in this text go back to publication PMC10954474, “https://orcid.org/0000-0002-6027-2265 Manakova Elena Institute of Biotechnology, Life Sciences Center, Vilnius University, Sauletekio av. 7, LT-10257, Vilnius, Lithuania”.

For data set [1], the target named is T1, AfAgo;AfAgo-N (Archaeoglobus fulgidus …, UniProt O28951;A0A075WKW4 1-427;1-250, |). Briefly: EMSA; preloaded guide, 5 mM Mg2+; EMSA: 40 mM Tris-acetate, 1 mM EDTA, pH 8.4, 5 mM Mg(OAc)2, 0.1 mg/ml BSA, 1 mM DTT, 10% glycerol, room temperature (25 C), 1 h. To be noted: protein: recombinant;recombinant; tags: ;His6-TEV (N-terminal); copies: 1;1; label: 5'-32P target; g1-g8 complementary.

Data set [2] deals with T1, AfAgo;AfAgo-N. The experiment in a line: EMSA; 5 mM Mg2+; EMSA: 40 mM Tris-acetate, 1 mM EDTA, pH 8.4, 5 mM Mg(OAc)2, 0.1 mg/ml BSA, 1 mM DTT, 10% glycerol, room temperature (25 C), 1 h. The conditions noted are these: protein: recombinant;recombinant, tags: ;His6-TEV (N-terminal), copies: 1;1, label: 5'-32P. In general terms: In EMSA bound probe runs differently from free probe, usually more slowly.

The target of a further data set is T2, AfAgo (Archaeoglobus fulgidus DSM4304, UniProt O28951 1-427).
T2 sequence: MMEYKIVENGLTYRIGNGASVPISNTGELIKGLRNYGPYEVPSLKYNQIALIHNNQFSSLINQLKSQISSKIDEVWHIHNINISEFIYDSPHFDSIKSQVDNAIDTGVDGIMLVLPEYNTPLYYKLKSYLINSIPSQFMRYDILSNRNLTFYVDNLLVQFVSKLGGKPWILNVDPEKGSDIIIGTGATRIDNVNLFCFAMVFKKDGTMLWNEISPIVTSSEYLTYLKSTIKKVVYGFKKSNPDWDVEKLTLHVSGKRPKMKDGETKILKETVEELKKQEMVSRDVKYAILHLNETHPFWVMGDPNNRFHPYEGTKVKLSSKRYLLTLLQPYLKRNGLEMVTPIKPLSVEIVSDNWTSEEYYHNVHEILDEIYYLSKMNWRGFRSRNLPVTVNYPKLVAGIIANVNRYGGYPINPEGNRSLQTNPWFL
The description is as above. To be noted: protein: recombinant; label: 5'-32P; blunt.

Data set [3] addresses T1, AfAgo;AfAgo-N. The experiment in a line: X-ray crystallography; 2.5 A; 5 mM Mg2+; EMSA: 40 mM Tris-acetate, 1 mM EDTA, pH 8.4, 5 mM Mg(OAc)2, 0.1 mg/ml BSA, 1 mM DTT, 10% glycerol, room temperature (25 C), 1 h. The conditions noted are these: protein: recombinant;recombinant; tags: ;His6-TEV (N-terminal); copies: 1;1; 2 strands partially annealed, 3 bp, in crystal.
In data set [4] the target is T1, AfAgo;AfAgo-N. The experiment in a line: cryo-EM; 3.56 A; EMSA: 40 mM Tris-acetate, 1 mM EDTA, pH 8.4, 5 mM Mg(OAc)2, 0.1 mg/ml BSA, 1 mM DTT, 10% glycerol, room temperature (25 C), 1 h. The conditions noted are these: protein: recombinant;recombinant; tags: ;His6-TEV (N-terminal); copies: 1;1; blunt.
Data set [5] deals with T1, AfAgo;AfAgo-N. Briefly: cryo-EM; 2.83 A; EMSA: 40 mM Tris-acetate, 1 mM EDTA, pH 8.4, 5 mM Mg(OAc)2, 0.1 mg/ml BSA, 1 mM DTT, 10% glycerol, room temperature (25 C), 1 h. To be noted: protein: recombinant;recombinant; tags: ;His6-TEV (N-terminal); copies: 1;1; 30 nt guide on 51 nt target with target overhangs.
In data set [6] the target is T1, AfAgo;AfAgo-N. Briefly: SEC-SAXS; 5 mM Mg2+; SASDRX8; EMSA: 40 mM Tris-acetate, 1 mM EDTA, pH 8.4, 5 mM Mg(OAc)2, 0.1 mg/ml BSA, 1 mM DTT, 10% glycerol, room temperature (25 C), 1 h. The conditions noted are these: protein: recombinant;recombinant; tags: ;His6-TEV (N-terminal); copies: 1;1; blunt, self-complementary. Background: In gel filtration, larger molecules generally elute earlier.

B1: gRNA MZ-1480 / tDNA MZ-1560 (DNA:RNA)
RNA: AUUGUACACGGCCGAAU
DNA: CGGAATATATGTACAAT
modifications: 5'-phosphate guide
As for B1, the binding result in the data set with AfAgo;AfAgo-N [1] was “binds”. Take AUUGUACACGGCCGAAU (ssRNA) [ssRNA MZ-1480]: in the data set with AfAgo;AfAgo-N [2] (single-stranded), the binding result is reported as “binds”.

B2: RNA/DNA MZ-1480/1455 (DNA:RNA)
RNA: AUUGUACACGGCCGAAU
DNA: ATTCGGCCGTGTACAAT
modifications: 5'-phosphate
For the molecule B2, the binding result with AfAgo;AfAgo-N [2] (blunt) and with AfAgo was “binds” each time.

B3: dsDNA MZ-1447/1455 (dsDNA)
DNA 1: ATTGTACACGGCCGAAT
DNA 2: ATTCGGCCGTGTACAAT
modifications: 5'-phosphate
With B3, the binding result in the data set with AfAgo;AfAgo-N [2] (blunt) and in the data set with AfAgo was “binds” throughout. As for ATCGACCAGGCTACG (ssDNA, 5'-phosphate) [GS-851], the binding result with AfAgo;AfAgo-N [3] was “binds”.

B4: g17/t17 MZ-1800/MZ-1455 (DNA:RNA)
RNA: AUUGUACACGGCCGAAU
DNA: ATTCGGCCGTGTACAAT
modifications: 5'-phosphate guide
As to B4, in the data set with AfAgo;AfAgo-N [4], the binding result was “binds”. Consider ATTGTACACGGCCGAAT (ssDNA) [ssDNA MZ-1447], for which, in the data set with AfAgo;AfAgo-N [2] (single-stranded), the binding result is on record as “binds”.

B5: g30/t51 MZ-1745/MZ-1747 (DNA:RNA)
RNA: AGGAGGGCGGAGCCUAUGGAAAAACGCCAC
DNA: GCCGCGCCGGTGGCGTTTTTCCATAGGCTCCGCCCTCCTGCCAGAGTTCGC
modifications: 5'-phosphate guide
Take B5: in the data set with AfAgo;AfAgo-N [5], the binding result is listed as “binds”.

B6: MZ-1288 14 bp DNA (dsDNA)
DNA 1: ATTGTGGCCACAAT
DNA 2: ATTGTGGCCACAAT
modifications: 5'-phosphate
For the molecule B6, the binding result with AfAgo;AfAgo-N [6] was “binds”.
